Laboratory results published in patent publication US20170275666A1, “Methods for Preparing Rebaudioside I and Uses” (The Coca-Cola Company, priority 2014, published 2017).
Changes are numbered by the printed parent chain.

B1: UGT76G1var8: UGT76G1 variant, mutations E224A_Q266S_Q342E (protein, UniProt Q6VAB4 1-458, looked up, variant E224A Q266S Q342E)
UDP-glycosyltransferase 76G1: MENKTETTVRRRRRIILFPVPFQGHINPILQLANVLYSKGFSITIFHTNFNKPKTSNYPHFTFRFILDNDPQDERISNLPTHGPLAGMRIPIINEHGADELRRELELLMLASEEDEEVSCLITDALWYFAQSVADSLNLRRLVLMTSSLFNFHAHVSLPQFDELGYLDPDDKTRLEEQASGFPMLKVKDIKSAYSNWQILKEILGKMIKQTKASSGVIWNSFKALEESELETVIREIPAPSFLIPLPKHLTASSSSLLDHDRTVFSWLDQQPPSSVLYVSFGSTSEVDEKDFLEIARGLVDSKQSFLWVVRPGFVKGSTWVEPLPDGFLGERGRIVKWVPQEEVLAHGAIGAFWTHSGWNSTLESVCEGVPMIFSDFGLDQPLNARYMSDVLKVGVYLENGWERGEIANAIRRVMVDEEGEYIRQNARVLKQKADVSLMKGGSSYESLESLVSYISSL
B2: UGT76G1var9: UGT76G1 variant, mutations E231A_D301N_G348P (protein, UniProt Q6VAB4 1-458, looked up, variant E231A D301N G348P)
UDP-glycosyltransferase 76G1: B1 UDP-glycosyltransferase 76G1 with A224E, E231A, S266Q, D301N, E342Q, G348P
B3: UGT76G1var10: UGT76G1 variant, mutations A33G_L246F_Q342E (protein, UniProt Q6VAB4 1-458, looked up, variant A33G L246F Q342E)
UDP-glycosyltransferase 76G1: B1 UDP-glycosyltransferase 76G1 with A33G, A224E, L246F, S266Q
B4: UGT76G1var11: UGT76G1 variant, mutations F22L_A33G_V310I (protein, UniProt Q6VAB4 1-458, looked up, variant F22L A33G V310I)
UDP-glycosyltransferase 76G1: B1 UDP-glycosyltransferase 76G1 with F22L, A33G, A224E, S266Q, V310I, E342Q
B5: UGT76G1var12: UGT76G1 variant, mutations L243P_K303G_A352G (protein, UniProt Q6VAB4 1-458, looked up, variant L243P K303G A352G)
UDP-glycosyltransferase 76G1: B1 UDP-glycosyltransferase 76G1 with A224E, L243P, S266Q, K303G, E342Q, A352G
B6: UGT76G1var13: UGT76G1 variant, mutations L243A_S357C_A385T (protein, UniProt Q6VAB4 1-458, looked up, variant L243A S357C A385T)
UDP-glycosyltransferase 76G1: B1 UDP-glycosyltransferase 76G1 with A224E, L243A, S266Q, E342Q, S357C, A385T
B7: UGT76G1var14: UGT76G1 variant, mutations A239I_F265I_V396F (protein, UniProt Q6VAB4 1-458, looked up, variant A239I F265I V396F)
UDP-glycosyltransferase 76G1: B1 UDP-glycosyltransferase 76G1 with A224E, A239I, F265I, S266Q, E342Q, V396F
B8: UGT76G1var15: UGT76G1 variant, mutations F41L_L246F_Q425E (protein, UniProt Q6VAB4 1-458, looked up, variant F41L L246F Q425E)
UDP-glycosyltransferase 76G1: B1 UDP-glycosyltransferase 76G1 with F41L, A224E, L246F, S266Q, E342Q, Q425E
B9: UGT76G1var16: UGT76G1 variant, mutations F265I_P272A_I335V (protein, UniProt Q6VAB4 1-458, looked up, variant F265I P272A I335V)
UDP-glycosyltransferase 76G1: B1 UDP-glycosyltransferase 76G1 with A224E, F265I, S266Q, P272A, I335V, E342Q
B10: UGT76G1var17: UGT76G1 variant, mutations F265L_Q266E_Q342K (protein, UniProt Q6VAB4 1-458, looked up, variant F265L Q266E Q342K)
UDP-glycosyltransferase 76G1: B1 UDP-glycosyltransferase 76G1 with A224E, F265L, S266E, E342K
B11: UGT76G1var18: UGT76G1 variant, mutations L243P_S274G_N409R (protein, UniProt Q6VAB4 1-458, looked up, variant L243P S274G N409R)
UDP-glycosyltransferase 76G1: B1 UDP-glycosyltransferase 76G1 with A224E, L243P, S266Q, S274G, E342Q, N409R
B12: UGT76G1var19: UGT76G1 variant, mutations E224D_E229A_Q432E (protein, UniProt Q6VAB4 1-458, looked up, variant E224D E229A Q432E)
UDP-glycosyltransferase 76G1: B1 UDP-glycosyltransferase 76G1 with A224D, E229A, S266Q, E342Q, Q432E
B13: UGT76G1var20: UGT76G1 variant, mutations S375M_K393G_Y397E (protein, UniProt Q6VAB4 1-458, looked up, variant S375M K393G Y397E)
UDP-glycosyltransferase 76G1: B1 UDP-glycosyltransferase 76G1 with A224E, S266Q, E342Q, S375M, K393G, Y397E
B14: UGT76G1var21: UGT76G1 variant, mutations A239V_V300A_K303G (protein, UniProt Q6VAB4 1-458, looked up, variant A239V V300A K303G)
UDP-glycosyltransferase 76G1: B1 UDP-glycosyltransferase 76G1 with A224E, A239V, S266Q, V300A, K303G, E342Q
B15: UGT76G1var22: UGT76G1 variant, mutations E231A_V310I_R334K (protein, UniProt Q6VAB4 1-458, looked up, variant E231A V310I R334K)
UDP-glycosyltransferase 76G1: B1 UDP-glycosyltransferase 76G1 with A224E, E231A, S266Q, V310I, R334K, E342Q
B16: UGT76G1var23: UGT76G1 variant, mutations T263S_G348P_A352G (protein, UniProt Q6VAB4 1-458, looked up, variant T263S G348P A352G)
UDP-glycosyltransferase 76G1: B1 UDP-glycosyltransferase 76G1 with A224E, T263S, S266Q, E342Q, G348P, A352G
B17: UGT76G1var24: UGT76G1 variant, mutations A239I_P272A_Q425E (protein, UniProt Q6VAB4 1-458, looked up, variant A239I P272A Q425E)
UDP-glycosyltransferase 76G1: B1 UDP-glycosyltransferase 76G1 with A224E, A239I, S266Q, P272A, E342Q, Q425E
B18: UGT76G1var25: UGT76G1 variant, mutations T284L_Q342K_Y397Q (protein, UniProt Q6VAB4 1-458, looked up, variant T284L Q342K Y397Q)
UDP-glycosyltransferase 76G1: B1 UDP-glycosyltransferase 76G1 with A224E, S266Q, T284L, E342K, Y397Q
B19: UGT76G1var26: UGT76G1 variant, mutations S241I_F265L_F377C (protein, UniProt Q6VAB4 1-458, looked up, variant S241I F265L F377C)
UDP-glycosyltransferase 76G1: B1 UDP-glycosyltransferase 76G1 with A224E, S241I, F265L, S266Q, E342Q, F377C
B20: UGT76G1var27: UGT76G1 variant, mutations A239I_L379A_V394I (protein, UniProt Q6VAB4 1-458, looked up, variant A239I L379A V394I)
UDP-glycosyltransferase 76G1: B1 UDP-glycosyltransferase 76G1 with A224E, A239I, S266Q, E342Q, L379A, V394I
B21: UGT76G1var28: UGT76G1 variant, mutations L243A_S274G_P382M (protein, UniProt Q6VAB4 1-458, looked up, variant L243A S274G P382M)
UDP-glycosyltransferase 76G1: B1 UDP-glycosyltransferase 76G1 with A224E, L243A, S266Q, S274G, E342Q, P382M
B22: UGT76G1var29: UGT76G1 variant, mutations F22Y_V279I_N409R (protein, UniProt Q6VAB4 1-458, looked up, variant F22Y V279I N409R)
UDP-glycosyltransferase 76G1: B1 UDP-glycosyltransferase 76G1 with F22Y, A224E, S266Q, V279I, E342Q, N409R
B23: UGT76G1var30: UGT76G1 variant, mutations I43V_E224A_S241I (protein, UniProt Q6VAB4 1-458, looked up, variant I43V E224A S241I)
UDP-glycosyltransferase 76G1: B1 UDP-glycosyltransferase 76G1 with I43V, S241I, S266Q, E342Q
B24: UGT76G1var31: UGT76G1 variant, mutations E224D_L243P_V300A (protein, UniProt Q6VAB4 1-458, looked up, variant E224D L243P V300A)
UDP-glycosyltransferase 76G1: B1 UDP-glycosyltransferase 76G1 with A224D, L243P, S266Q, V300A, E342Q
B25: UGT76G1var32: UGT76G1 variant, mutations A239V_L243A_S375M (protein, UniProt Q6VAB4 1-458, looked up, variant A239V L243A S375M)
UDP-glycosyltransferase 76G1: B1 UDP-glycosyltransferase 76G1 with A224E, A239V, L243A, S266Q, E342Q, S375M

Assay: Directed evolution of UGT76G1, conversion of Rebaudioside D to Rebaudioside M (round 1)
Assay type: biochemical
Settings: 0.5 mM Rebaudioside D, 2.5 mM UDP-Glucose, 100 μL fresh lysate, 30° C., pH 7.2
Source text: Starting from the amino acid sequence of UGT76G1, as is described in Genbank (AAR06912.1), different mutations at various amino acid positions were identified that could alter the activity of the enzyme for the transformation of Rebaudioside D (Reb D) to Rebaudioside M (Reb M). This list of mutations, designed by DNA2.0 ProteinGPS™ strategy, was subsequently used to synthesize 96 variant genes that contained 3, 4 or 5 of these mutations that were codon-optimized for expression in E. coli. The genes were subcloned in the pET30a+ plasmid and used for transformation of E. coli BL21 (DE3) chemically competent cells. The obtained cells were grown in Petri-dishes on solid LB medium in the presence of Kanamycin. Suitable colonies were selected and allowed to grow in liquid LB medium in tubes. Glycerol was added to the suspension as cryoprotectant and 400 μL aliquots were stored at −20° C. and at −80° C.
These storage aliquots of E. coli BL21(DE3) containing the pET30a+_UGT76G1var plasmids were thawed and added to LBGKP medium (20 g/L Luria Broth Lennox; 50 mM PIPES buffer pH 7.00; 50 mM Phosphate buffer pH 7.00; 2.5 g/L glucose and 50 mg/L of Kanamycine). This culture was allowed to shake in a 96 microtiter plate at 135 rpm at 30° C. for 8 h.
3.95 mL of production medium containing 60 g/L of Overnight Express™ Instant TB medium (Novagen®), 10 g/L of glycerol and 50 mg/L of Kanamycin was inoculated with 50 μL of above described culture. In a 48 deepwell plate the resulting culture was allowed to stir at 20° C. The cultures gave significant growth and a good OD (600 nm; 1 cm) was obtained. After 44 h, the cells were harvested by centrifugation and frozen.
Lysis was performed by addition of Bugbuster® Master mix (Novagen®) to the thawed cells and the lysate was recovered by centrifugation. Activity tests were performed with 100 μL of fresh lysate that was added to a solution of Rebaudioside D (final concentration 0.5 mM), MgCl2 (final concentration 3 mM) and UDP-Glucose (final concentration 2.5 mM) in 50 mM phosphate buffer pH 7.2.
The reaction was allowed to run at 30° C. and samples were taken after 2, 4, 7 and 24 h. to determine conversion and initial rate by HPLC (CAD detection) using the analytical method that was described above for the transformation of Rebaudioside D to Rebaudioside M. The results are depicted in the following table.

Molecule	Conversion Reb D to Reb M after 24 h (%)	initial rate (Reb M area/min)
B1	0.5	2.3E+04
B2	52.0	4.9E+07
B3	0.3	−7.7E+02
B4	0.4	3.8E+04
B5	0.5	8.7E+04
B6	0.2	−3.3E+04
B7	5.3	1.5E+06
B8	5.6	1.5E+06
B9	18.6	5.8E+06
B10	0.7	7.2E+05
B11	1.9	5.0E+05
B12	10.5	5.5E+06
B13	1.8	1.9E+06
B14	41.9	3.3E+07
B15	34.4	2.4E+07
B16	47.8	4.1E+07
B17	31.0	2.1E+07
B18	0.9	6.3E+04
B19	1.8	7.5E+05
B20	29.0	1.5E+07
B21	6.1	2.4E+06
B22	41.0	2.9E+07
B23	13.6	5.6E+06
B24	0.4	2.4E+05
B25	0.0	−4.4E+04
